{
  "source": "patent US6858210B1",
  "about": "“Therapeutic and diagnostic domain 1 β2GPI polypeptides and methods of using same” (La Jolla Pharmaceutical Co., priority 1998, dated 2005)",
  "molecules": {"B1": {"name": "12345: recombinant full length human β2GPI (domains 1-5) with C-terminal GlyHis6, baculovirus expressed (protein)", "chain": "GRTCPKPDDLPFSTVVPLKTFYEPGEEITYSCKPGYVSRGGMRKFICPLTGLWPINTLKCTPRVCPFAGILENGAVRYTTFEYPNTISFSCNTGFYLNGADSAKCTEEGKWSPELPVCAPIICPPPSIPTFATLRVYKPSAGNNSLYRDTAVFECLPQHAMFGNDTITCTTHGNWTKLPECREVKCPFPSRPDNGFVNYPAKPTLYYKDKATFGCHDGYSLDGPEEIECTKLGNWSAMPSCKASCKLPVKKATVVYQGERVKIQEKFKNGMLHGDKVSFFCKNKEKKCSYTEDAQCIDGTIEVPKCFKEHSSLAFWKTDASDVKPCGHHHHHH"}},
  "key": {"[1]": {"tested_on": "Normal human plasma", "experiment": "Surface plasmon resonance (BIAcore): control plasma/serum over immobilized β2GPI proteins", "format": "binding", "settings": "serum of 55 controls; for Req (mean ± sem): diluted 1:1", "excerpt": "(§1) Reagents. CM5 chips, NHS and EDC and HBS-EP buffer were from BIAcore. Human haptoglobin (phenotyope 1—1), a protein containing the short consensus repeat motif found in β2GPI, was immobilized in a separate flow cell on the chip and used as a negative control. Recombinant β2GPI and domain-deletion mutants of β2GPI were expressed in Tn5 cells using the baculovirus protein expression system and purified from the supernatants by nickel-chelation affinity column. Iverson et al. (1998) Proc. Natl. Acad. Sci. USA 95:15542-15546. Normal human plasma samples were purchased (George King Biomedical) or obtained in-house. Patient plasma samples from individuals diagnosed with either primary or secondary (to lupus) antiphospholipid antibody syndrome were obtained from a number of clinical sources.\n(§2) The 55 controls used in this study were derived from a heterogenous sample. Thirty control samples (15 male; 15 female; mean age 34 yrs, range 19-45 yrs) purchased from George King Bio-Medical (Overland Park, Kans.), 5 local volunteers (3 male, 2 female), 2 pooled commercial sources and 18 blood bank donors of unknown origin were included in the analysis. The patient samples were collected from several sources and included patients with histories of venous thrombosis, arterial occlusions, cerebrovascular occlusions, multiple miscarriages and thrombocytopenia. All patients included in the study had IgG antiphospholipid antibody level (GPL) levels>20 by internal assay.\nSurface Plasmon Resonance. All experiments were performed using a BIAcore™ 2000 instrument at 25° C. with a flow rate of 10 μL/minute. Chip equilibration and binding studies were performed with degassed HBS-EP buffer, which consists of 0.01 M HEPES pH 7.4, 0.15 M NaCl, 3 mM EDTA and 0.005% (v/v) surfactant P20. Covalent coupling of protein ligands through their free amino groups to the CM5 chip was accomplished by flowing 40 μL of 0.05 M NHS/0.2M EDC over the chip to activate the chip, followed by exposure to the appropriate protein ligand. Recombinant β2GPI(His)6, domain-deletion mutants of β2GPI and haptoglobin were immobilized by flowing 50 μL of a 25 μg/mL solution in 10 mM acetate, (pH 4.8) over the NHS-activated CM5 chip. The excess reactive groups on the chip surface are then quenched with 40 μL of 1 M ethanoloamine, (pH 8.5). Human plasma samples (130 μL) were diluted 1:1 with HBS-EP, flowed over the β2GPI chip, and response values were collected for 780 seconds. The chips were regenerated between sample exposures with 80 μL of 0.1 M glycine-HCl (pH 2.1), 0.1 M NaCl. Since the approach to binding equilibrium was incomplete during the measurement period, the equilibrium binding value (Req) was determined by fitting the association curves to the following equation using the manufacturers software (BiaEvaluation version 2.2, Uppsala, Sweden) Rt=Req(I−e^−ks(t−t0))+R0 where Rt is the measured BIAcore response at time t, Req is the equilibrium plateau response, t is time, t0 is initial time, k, is an apparent association constant (ks=kaC+kdis, where ka is the association constant, C is the analyte concentration and kdis is the dissociation constant), and R0 is a response offset. In some experiments total IgG fractions from human plasma samples were obtained from binding to and acid elution from protein G. The plasma remaining after binding to protein G was remixed with fresh protein G beads and isolated as IgG-stripped plasma. […]"}, "[2]": {"tested_on": "APS patient plasma", "experiment": "Surface plasmon resonance (BIAcore): APS patient plasma/serum over immobilized β2GPI proteins", "format": "binding, human", "set-up": "key: Req = fitted equilibrium plateau BIAcore response", "settings": "for Req (mean ± sem): diluted 1:1", "excerpt": "as §1, §2\nTotal IgG fraction was isolated from plasma using Immunopure Plus protein G agarose beads and Immunopure IgG binding and elution buffers according to the manufacturers recommendation (Pierce).\nSurface Plasmon Resonance. All experiments were performed using a BIAcore™ 2000 instrument at 25° C. with a flow rate of 10 μL/minute. Chip equilibration and binding studies were performed with degassed HBS-EP buffer, which consists of 0.01 M HEPES pH 7.4, 0.15 M NaCl, 3 mM EDTA and 0.005% (v/v) surfactant P20. Covalent coupling of protein ligands through their free amino groups to the CM5 chip was accomplished by flowing 40 μL of 0.05 M NHS/0.2M EDC over the chip to activate the chip, followed by exposure to the appropriate protein ligand. Recombinant β2GPI(His)6, domain-deletion mutants of β2GPI and haptoglobin were immobilized by flowing 50 μL of a 25 μg/mL solution in 10 mM acetate, (pH 4.8) over the NHS-activated CM5 chip. The excess reactive groups on the chip surface are then quenched with 40 μL of 1 M ethanoloamine, (pH 8.5). Human plasma samples (130 μL) were diluted 1:1 with HBS-EP, flowed over the β2GPI chip, and response values were collected for 780 seconds. The chips were regenerated between sample exposures with 80 μL of 0.1 M glycine-HCl (pH 2.1), 0.1 M NaCl. Since the approach to binding equilibrium was incomplete during the measurement period, the equilibrium binding value (Req) was determined by fitting the association curves to the following equation using the manufacturers software (BiaEvaluation version 2.2, Uppsala, Sweden) Rt=Req(I−e^−ks(t−t0))+R0 where Rt is the measured BIAcore response at time t, Req is the equilibrium plateau response, t is time, t0 is initial time, k, is an apparent association constant (ks=kaC+kdis, where ka is the association constant, C is the analyte concentration and kdis is the dissociation constant), and R0 is a response offset. In some experiments total IgG fractions from human plasma samples were obtained from binding to and acid elution from protein G. The plasma remaining after binding to protein G was remixed with fresh protein G beads and isolated as IgG-stripped plasma. Neutralized IgG preparations and IgG-stripped plasma diluted 1:1 with buffer were flowed over the β2GPI chip as described above. Results and Discussion"}},
  "data": [
    {"molecule": "B1", "values": [
      {"measurement": "Median Req", "setting": "[1]", "value": 201},
      {"measurement": "Req (mean ± sem)", "setting": "[1]; listed as D1-5", "value": "328 ± 52"},
      {"measurement": "Req (mean ± sem)", "setting": "[1]; listed as β2-GPI(D1-5)", "value": 328},
      {"measurement": "BIAcore Req", "setting": "[2]; non-selective patient 6117, IgG-stripped Plasma (1:2)", "value": 0},
      {"measurement": "BIAcore Req", "setting": "[2]; non-selective patient 6117, Total IgG (1:4)", "value": 120},
      {"measurement": "BIAcore Req", "setting": "[2]; non-selective patient 6117, Whole Plasma (1:2)", "value": 324},
      {"measurement": "BIAcore Req", "setting": "[2]; non-selective patient 6194, IgG-stripped Plasma (1:2)", "value": 0},
      {"measurement": "BIAcore Req", "setting": "[2]; non-selective patient 6194, Total IgG (1:4)", "value": 470},
      {"measurement": "BIAcore Req", "setting": "[2]; non-selective patient 6194, Whole Plasma (1:2)", "value": 2046},
      {"measurement": "BIAcore Req", "setting": "[2]; non-selective patient 6611, IgG-stripped Plasma (1:2)", "value": 0},
      {"measurement": "BIAcore Req", "setting": "[2]; non-selective patient 6611, Total IgG (1:4)", "value": 251},
      {"measurement": "BIAcore Req", "setting": "[2]; non-selective patient 6611, Whole Plasma (1:2)", "value": 892},
      {"measurement": "BIAcore Req", "setting": "[2]; non-selective patient 6627, IgG-stripped Plasma (1:2)", "value": 0},
      {"measurement": "BIAcore Req", "setting": "[2]; non-selective patient 6627, Total IgG (1:4)", "value": 132},
      {"measurement": "BIAcore Req", "setting": "[2]; non-selective patient 6627, Whole Plasma (1:2)", "value": 324},
      {"measurement": "BIAcore Req", "setting": "[2]; non-selective patient 6649, IgG-stripped Plasma (1:2)", "value": 0},
      {"measurement": "BIAcore Req", "setting": "[2]; non-selective patient 6649, Total IgG (1:4)", "value": 253},
      {"measurement": "BIAcore Req", "setting": "[2]; non-selective patient 6649, Whole Plasma (1:2)", "value": 758},
      {"measurement": "BIAcore Req", "setting": "[2]; non-selective patient 7013, IgG-stripped Plasma (1:2)", "value": 0},
      {"measurement": "BIAcore Req", "setting": "[2]; non-selective patient 7013, Total IgG (1:4)", "value": 115},
      {"measurement": "BIAcore Req", "setting": "[2]; non-selective patient 7013, Whole Plasma (1:2)", "value": 241},
      {"measurement": "BIAcore Req", "setting": "[2]; patient 6207, IgG-stripped Plasma (1:2)", "value": 0},
      {"measurement": "BIAcore Req", "setting": "[2]; patient 6207, Total IgG (1:4)", "value": 480},
      {"measurement": "BIAcore Req", "setting": "[2]; patient 6207, Whole Plasma (1:2)", "value": 1450},
      {"measurement": "BIAcore Req", "setting": "[2]; patient 6501, IgG-stripped Plasma (1:2)", "value": 0},
      {"measurement": "BIAcore Req", "setting": "[2]; patient 6501, Total IgG (1:4)", "value": 732},
      {"measurement": "BIAcore Req", "setting": "[2]; patient 6501, Whole Plasma (1:2)", "value": 1526},
      {"measurement": "BIAcore Req", "setting": "[2]; patient 6515, IgG-stripped Plasma (1:2)", "value": 0},
      {"measurement": "BIAcore Req", "setting": "[2]; patient 6515, Total IgG (1:4)", "value": 440},
      {"measurement": "BIAcore Req", "setting": "[2]; patient 6515, Whole Plasma (1:2)", "value": 1024},
      {"measurement": "BIAcore Req", "setting": "[2]; patient 6601, IgG-stripped Plasma (1:2)", "value": 0},
      {"measurement": "BIAcore Req", "setting": "[2]; patient 6601, Total IgG (1:4)", "value": 266},
      {"measurement": "BIAcore Req", "setting": "[2]; patient 6601, Whole Plasma (1:2)", "value": 792},
      {"measurement": "BIAcore Req", "setting": "[2]; patient 6626, IgG-stripped Plasma (1:2)", "value": 49},
      {"measurement": "BIAcore Req", "setting": "[2]; patient 6626, Total IgG (1:4)", "value": 1132},
      {"measurement": "BIAcore Req", "setting": "[2]; patient 6626, Whole Plasma (1:2)", "value": 1622},
      {"measurement": "BIAcore Req", "setting": "[2]; patient 6642, IgG-stripped Plasma (1:2)", "value": 48},
      {"measurement": "BIAcore Req", "setting": "[2]; patient 6642, Total IgG (1:4)", "value": 480},
      {"measurement": "BIAcore Req", "setting": "[2]; patient 6642, Whole Plasma (1:2)", "value": 811},
      {"measurement": "BIAcore Req", "setting": "[2]; patient 6701, IgG-stripped Plasma (1:2)", "value": 0},
      {"measurement": "BIAcore Req", "setting": "[2]; patient 6701, Total IgG (1:4)", "value": 460},
      {"measurement": "BIAcore Req", "setting": "[2]; patient 6701, Whole Plasma (1:2)", "value": 952},
      {"measurement": "BIAcore Req", "setting": "[2]; patient 6703, IgG-stripped Plasma (1:2)", "value": 0},
      {"measurement": "BIAcore Req", "setting": "[2]; patient 6703, Total IgG (1:4)", "value": 556},
      {"measurement": "BIAcore Req", "setting": "[2]; patient 6703, Whole Plasma (1:2)", "value": 1001},
      {"measurement": "BIAcore Req", "setting": "[2]; patient 7015, IgG-stripped Plasma (1:2)", "value": 0},
      {"measurement": "BIAcore Req", "setting": "[2]; patient 7015, Total IgG (1:4)", "value": 864},
      {"measurement": "BIAcore Req", "setting": "[2]; patient 7015, Whole Plasma (1:2)", "value": 2092},
      {"measurement": "BIAcore Req", "setting": "[2]; patient 7201, IgG-stripped Plasma (1:2)", "value": 0},
      {"measurement": "BIAcore Req", "setting": "[2]; patient 7201, Total IgG (1:4)", "value": 292},
      {"measurement": "BIAcore Req", "setting": "[2]; patient 7201, Whole Plasma (1:2)", "value": 603},
      {"measurement": "Median Req", "setting": "[2]; serum of 106 APS patients (GPL ≧ 20)", "value": 635},
      {"measurement": "Req (mean ± sem)", "setting": "[2]; serum of 106 APS patients (GPL ≧ 20), listed as D1-5", "value": "730 ± 42"},
      {"measurement": "Req (mean ± sem)", "setting": "[2]; serum of 106 APS patients (GPL ≧ 20), listed as β2-GPI(D1-5)", "value": 730}
    ]}
  ]
}
